For one substance, stoichiometry N results are on record in article PMC9935853.

This experiment deals with S. pombe respiratory complex IV (cytochrome c oxidase), affinity purified through a C-terminal twin-strep tag on subunit Cox5 (S. pombe) (UniProt P07657). The experiment in a line: pull-down + SEC; membranes solubilised in 1% GDN; StrepTactin column through Cox5-2xstrep, then Superose 6 Increase in 25 mM KH2PO4 pH 8.0, 150 mM KCl, 0.01% GDN; peaks analysed by reduced minus oxidized difference spectra.

For orientation: stoichiometry N means the number of molecules, sites or subunits per partner or assembly.

UniProt P07657, sequence (P07657 whole entry, looked up, tested part not stated, one chain of several): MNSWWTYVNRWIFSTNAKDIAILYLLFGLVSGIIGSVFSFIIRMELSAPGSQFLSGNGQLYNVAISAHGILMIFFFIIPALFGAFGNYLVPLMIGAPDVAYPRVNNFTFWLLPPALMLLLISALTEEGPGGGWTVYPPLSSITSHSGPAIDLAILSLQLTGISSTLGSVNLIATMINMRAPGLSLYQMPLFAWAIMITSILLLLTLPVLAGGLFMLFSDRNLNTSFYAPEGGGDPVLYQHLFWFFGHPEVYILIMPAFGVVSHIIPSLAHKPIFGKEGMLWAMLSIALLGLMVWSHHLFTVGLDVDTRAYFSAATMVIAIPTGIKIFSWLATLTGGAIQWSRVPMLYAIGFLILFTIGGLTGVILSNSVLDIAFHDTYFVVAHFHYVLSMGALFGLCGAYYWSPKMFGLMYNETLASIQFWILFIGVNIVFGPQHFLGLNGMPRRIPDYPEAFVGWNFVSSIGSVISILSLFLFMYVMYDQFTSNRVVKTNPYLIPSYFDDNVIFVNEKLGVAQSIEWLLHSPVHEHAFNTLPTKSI

In the case of “S. pombe respiratory complex III (cyt. bc1 complex)”, the stoichiometry N is 2 CIII:CIV.
